Biological target: T1, CTDNEP1ΔAH as it stands in the crystallized CTDNEP1ΔAH-linker-sNEP1R1-His6 fusion (human, UniProt O95476 40-244)
T1 sequence (looked up): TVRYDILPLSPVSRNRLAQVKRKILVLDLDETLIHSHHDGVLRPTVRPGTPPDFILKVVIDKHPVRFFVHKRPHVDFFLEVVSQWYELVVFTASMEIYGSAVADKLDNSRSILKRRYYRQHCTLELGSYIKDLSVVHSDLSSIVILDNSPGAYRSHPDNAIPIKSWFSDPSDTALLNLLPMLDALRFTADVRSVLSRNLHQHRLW
Test: crystal structure

binding result: binds
Binder: GSAKGSES [linker peptide of the CTDNEP1ΔAH-linker-sNEP1R1-His6 fusion]

— PMC11145253 (Proceedings of the National Academy of Sciences of the …, 2024)
